According to patent US20210275657A1, “NEOANTIGENS AND USES THEREOF” (BioNTech US Inc., priority 2018, published 2021):

Columns and labels:
Settings in all cases: remark: other sources report otherwise
HLA-A02:01 (human) [1] = experiment: peptide-HLA affinity, Example 9
HLA-A02:01 (human) [2] = experiment: peptide-HLA stability, Example 9
HLA-A02:01 (human) [3] = experiment: peptide-HLA affinity, Example 41
HLA-A02:01 (human) [4] = experiment: peptide-HLA stability, Example 41
HLA-A01:01 (human) [5] = experiment: peptide-HLA affinity, Example 41
HLA-A01:01 (human) [6] = experiment: peptide-HLA stability, Example 41
HLA-B08:01 (human) [7] = experiment: peptide-HLA stability, Example 41
HLA-B08:01 (human) [8] = experiment: peptide-HLA stability, Example 36
HLA-B07:02 (human) [9] = experiment: peptide-HLA stability, Example 36
HLA-A02:01 (human) [10] = experiment: peptide-HLA stability, Example 36
HLA-B08:01 (human) [11] = experiment: peptide-HLA affinity, Example 36
HLA-B07:02 (human) [12] = experiment: peptide-HLA affinity, Example 36
HLA-A02:01 (human) [13] = experiment: peptide-HLA affinity, Example 36
HLA-B07:02 (human) [14] = experiment: peptide-HLA affinity, Example 41
HLA-B07:02 (human) [15] = experiment: peptide-HLA stability, Example 41
HLA-A24:02 (human) [16] = experiment: peptide-HLA affinity, Example 9
HLA-B08:01 (human) [17] = experiment: pMHC-I dissociation, 125I-b2m, 37C; experiment 1
HLA-A02:01 (human) [18] = experiment: pMHC-I dissociation, 125I-b2m, 37C; experiment 1
HLA-B08:01 (human) [19] = experiment: peptide-HLA stability, Example 9
HLA-A24:02 (human) [20] = experiment: peptide-HLA stability, Example 9
HLA-B08:01 (human) [21] = experiment: pMHC-I dissociation, 125I-b2m, 37C; experiment 2
HLA-A02:01 (human) [22] = experiment: pMHC-I dissociation, 125I-b2m, 37C; experiment 2
HLA-B08:01 (human) [23] = experiment: pMHC-I dissociation, 125I-b2m, 37C; average of 2
HLA-A02:01 (human) [24] = experiment: pMHC-I dissociation, 125I-b2m, 37C; average of 2

## ALQPLQPHA
HLA-A02:01 (human) [1]
  Observed MHC affinity: 604 nM
HLA-A02:01 (human) [2]
  Observed MHC stability: 1.5 h

## STVQLIMQL
HLA-A02:01 (human) [3]
  Affinity: 7260 nM
HLA-A02:01 (human) [4]
  Stability (1/2 hr): 0 h

## LTSTVQLIM
HLA-A01:01 (human) [5]
  Affinity: 2.89 µM
HLA-A01:01 (human) [6]
  Stability (1/2 hr): 0.104 h

## IMQLMPFGCL
HLA-A02:01 (human) [3]
  Affinity: 653 nM
HLA-B08:01 (human) [7]
  Stability (1/2 hr): 0 h
HLA-A02:01 (human) [4]
  Stability (1/2 hr): 0.516 h

## IMQLMPFGC
HLA-A02:01 (human) [3]
  Affinity: 1210 nM
HLA-A02:01 (human) [4]
  Stability (1/2 hr): 0.37 h

## MQLMPFGCLL
HLA-A02:01 (human) [3]
  Affinity: 16.3 nM
HLA-A02:01 (human) [4]
  Stability (1/2 hr): 0.381 h

## SLLNYLREM
HLA-B08:01 (human) [8]
  Stability (1/2 hr): 0 h
HLA-B07:02 (human) [9]
  Stability (1/2 hr): 0 h
HLA-A02:01 (human) [10]
  Stability (1/2 hr): 3.04 h
HLA-B08:01 (human) [11]
  Affinity: 960 nM
HLA-B07:02 (human) [12]
  Affinity: 866 nM
HLA-A02:01 (human) [13]
  Affinity: 67.7 nM

## MQLMPFGCL
HLA-B07:02 (human) [14]
  Affinity: 1590 nM
HLA-A02:01 (human) [3]
  Affinity: 116 nM
HLA-B08:01 (human) [7]
  Stability (1/2 hr): 0 h
HLA-B07:02 (human) [15]
  Stability (1/2 hr): 0 h
HLA-A02:01 (human) [4]
  Stability (1/2 hr): 0.368 h

## YMANGSLLN
HLA-A02:01 (human) [10]
  Stability (1/2 hr): 0 h
HLA-A02:01 (human) [13]
  Affinity: 4000 nM

## YMFLKAESKI
HLA-A24:02 (human) [16]
  Observed MHC affinity: 7 µM
HLA-B08:01 (human) [17]
  half-life: 24 min
HLA-A02:01 (human) [18]
  half-life: 36 min
HLA-B08:01 (human) [19]
  Observed MHC stability: 0.4 h
HLA-A24:02 (human) [20]
  Observed MHC stability: 1.2 h
HLA-A02:01 (human) [2]
  Observed MHC stability: 0.6 h
HLA-B08:01 (human) [21]
  half-life: 30 min
HLA-A02:01 (human) [22]
  half-life: 36 min
HLA-B08:01 (human) [23]
  half-life: 24 min
HLA-A02:01 (human) [24]
  half-life: 36 min

## MANGSLLNYL
HLA-A02:01 (human) [10]
  Stability (1/2 hr): 0 h
HLA-A02:01 (human) [13]
  Affinity: 1010 nM

## LIMQLMPFG
HLA-A02:01 (human) [3]
  Affinity: 3340 nM
HLA-A02:01 (human) [4]
  Stability (1/2 hr): 0 h

## CLTSTVQLIM
HLA-A01:01 (human) [5]
  Affinity: 8.28 µM
HLA-A02:01 (human) [3]
  Affinity: 537 nM
HLA-A01:01 (human) [6]
  Stability (1/2 hr): 0 h
HLA-A02:01 (human) [4]
  Stability (1/2 hr): 0 h
